From PMC9987799
One block for each molecule: values may come before it.

Assays:
Assay in all cases: two-hybrid; fluorescence-based mammalian two-hybrid: bait EDC4 (or a fragment) fused to the SV40 NLS forms nuclear dots in transfected HEp-2 cells; prey scored by immunofluorescence for co-localisation in nuclear dots 24 h after transfection; three transfections, at least 30 cells each, mean +/- …
[1] = target: NLS-EDC4 (full-length EDC4, amino acids 1–1437, fused to the NLS of SV40 T antigen)
GFP-NLS-EDC4(935–1437) = target: GFP-NLS-EDC4(935–1437)
[2] = target: NLS-EDC4 (full-length EDC4, amino acids 1–1437, fused to the NLS of SV40 T antigen); remark: listed apart in the source

B1: CCHCR1-Myc (natural protein)
chain: MFPPSGSTGLIPPSHFQARPLSTLPRMAPTWLSDIPLVQPPGHQDVSERRLDTQRPQVTMWERDVSSDRQEPGRRGRSWGLEGSQALSQQAEVIVRQLQELRRLEEEVRLLRETSLQQKMRLEAQAMELEALARAEKAGRAEAEGLRAALAGAEVVRKNLEEGSQRELEEVQRLHQEQLSSLTQAHEEALSSLTSKAEGLEKSLSSLETRRAGEAKELAEAQREAELLRKQLSKTQEDLEAQVTLVENLRKYVGEQVPSEVHSQTWELERQKLLETMQHLQEDRDSLHATAELLQVRVQSLTHILALQEEELTRKVQPSDSLEPEFTRKCQSLLNRWREKVFALMVQLKAQELEHSDSVKQLKGQVASLQEKVTSQSQEQAILQRSLQDKAAEVEVERMGAKGLQLELSRAQEARRRWQQQTASAEEQLRLVVNAVSSSQIWLETTMAKVEGAAAQLPSLNNRLSYAVRKVHTIRGLIARKLALAQLRQESCPLPPPVTDVSLELQQLREERNRLDAELQLSARLIQQEVGRAREQGEAERQQLSKVAQQLEQELQQTQESLASLGLQLEVARQGQQESTEEAASLRQELTQQQELYGQALQEKVAEVETRLREQLSDTERRLNEARREHAKAVVSLRQIQRRAAQEKERSQELRRLQEEARKEEGQRLARRLQELERDKNLMLATLQQEGLLSRYKQQRLLTVLPSLLDKKKSVVSSPRPPECSASAPVAAAVPTRESIKGSLSVLLDDLQDLSEAISKEEAVCQGDNLDRCSSSNPQMSS
percent of cells expressing both proteins with the two co-localized in nuclear dots (GFP-NLS-EDC4(935–1437)): 96%

B3: mCh-NLS-XRN1(1232–1706) (domain or fragment)
chain: EFCNIWQSLQGSGKMQYFQPTIQEKGAVLPQEISQVNQHHKSGFNDNSVKYQQRKHDPHRKFKEECKSPKAECWSQKMSNKQPNSGIENFLASLNISKENEVQSSHHGEPPSEEHLSPQSFAMGTRMLKEILKIDGSNTVDHKNEIKQIANEIPVSSNRRDEYGLPSQPKQNKKLASYMNKPHSANEYHNVQSMDNMCWPAPSQIPPVSTPVTELSRICSLVGMPQPDFSFLRMPQTMTVCQVKLSNGLLVHGPQCHSENEAKEKAALFALQQLGSLGMNFPLPSQVFANYPSAVPPGTIPPAFPPPTGWDHYGSNYALGAANIMPSSSHLFGSMPWGPSVPVPGKPFHHTLYSGTMPMAGGIPGGVHNQFIPLQVTKKRVANKKNFENKEAQSSQATPVQTSQPDSSNIVKVSPRESSSASLKSSPIAQPASSFQVETASQGHSISHHKSTPISSSRRKSRKLAVNFGVSKPSE
percent of cells expressing both proteins with both in nuclear dots [2]: 94%

Further lines, results first:

percent of cells with both proteins in the nucleus that had the two in nuclear dots [1]: 86%
Molecule: NLS-LSm14a (SV40 T antigen NLS fused to LSm14a) (from UniProt Q8ND56 1-463) (natural protein)

percent of cells expressing both proteins with the two co-localized in nuclear dots [2]: 97%
B2: Myc-PATL1(398–770) (domain or fragment)
chain: KDPYANLMLQREKDWVSKIQMMQLQSTDPYLDDFYYQNYFEKLEKLSAAEEIQGDGPKKERTKLITPQVAKLEHAYKPVQFEGSLGKLTVSSVNNPRKMIDAVVTSRSEDDETKEKQVRDKRRKTLVIIEKTYSLLLDVEDYERRYLLSLEEERPALMDDRKHKICSMYDNLRGKLPGQERPSDDHFVQIMCIRKGKRMVARILPFLSTEQAADILMTTARNLPFLIKKDAQDEVLPCLLSPFSLLLYHLPSVSITSLLRQLMNLPQSAATPALSNPHLTAVLQNKFGLSLLLILLSRGEDLQSSDPATESTQNNQWTEVMFMATRELLRIPQAALAKPISIPTNLVSLFSRYVDRQKLNLLETKLQLVQGIR
